In the experiment the target is S. cerevisiae translation elongation factor 1A (eEF1A), TEF1-encoded, purified from a ΔEFM4 strain (S. cerevisiae) (UniProt P02994).

Bounds are passed on as bounds.

Chain of UniProt P02994 (P02994 whole entry, stated change not applied): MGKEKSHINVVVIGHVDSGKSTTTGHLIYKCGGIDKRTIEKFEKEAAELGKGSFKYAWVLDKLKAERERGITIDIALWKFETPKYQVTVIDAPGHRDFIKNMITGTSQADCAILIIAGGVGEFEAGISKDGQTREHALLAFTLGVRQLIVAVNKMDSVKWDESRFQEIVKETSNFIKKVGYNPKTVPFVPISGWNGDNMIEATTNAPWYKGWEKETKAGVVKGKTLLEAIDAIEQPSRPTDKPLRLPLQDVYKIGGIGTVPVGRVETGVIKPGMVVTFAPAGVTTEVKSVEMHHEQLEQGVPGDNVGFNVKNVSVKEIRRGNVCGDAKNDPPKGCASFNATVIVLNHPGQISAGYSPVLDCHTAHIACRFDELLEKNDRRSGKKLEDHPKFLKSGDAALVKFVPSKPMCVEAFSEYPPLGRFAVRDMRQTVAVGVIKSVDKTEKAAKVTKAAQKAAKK

B1: Efm4 F210A/F212A double mutant (enzyme)
chain: FRRNPQDTGDCWFSDSDAEQKMIDFLVDNIGAYRISENASVVDLGTGNGHMLFELHQTEFQGKLVGIDYSEESVKLASNIAEATGVDNFISFQQADIFSGDWKPGKYDIVLDKGTLDAISLSGMKINGKLDVVDVYAGVVERILKKDGIFLITSCNFTQDELVKIIETDNLKMWKTIKYPVAQAGGVQGATICSVAFVKQN
As to B1, the in vitro methylation of eEF1A K316 (Efm4 3 μM, eEF1A 2 μM, AdoMet, 30 min, 30 °C; LC-MS/MS) was less than 20%.

The record behind these values is article PMC10844748.
